Laboratory results from the supplement of paper PMC9112550, “Optimization of the antimicrobial peptide Bac7 by deep mutational scanning” (BMC Biology, 2022).

test system: Escherichia coli TOP10; experiment: shrunken log2 fold change of peptide-encoding DNA abundance (4.5 h post-induction vs induction); higher = less antimicrobial activity (less host growth inhibition); conditions: time post-induction: 4.5 h; library: site-saturation at positions 5, 18, 19, 20
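Note: peptides expressed intracellularly from a pBAD plasmid library in pooled LB shake-flask culture, induced with 0.3% L-arabinose, DNA abundance read by NGS, three biological replicates, DESeq2 with apeglm shrinkage.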

Row | Sequence | shrunken log2 fold change
1 | RRIRLRPPRLPRPRPRPDLEPRP | 0.0992
2 | RRIRLRPPRLPRPRPRPDLWPRP | 0.774
3 | RRIRLRPPRLPRPRPRPDMRPRP | -0.0825
4 | RRIRLRPPRLPRPRPRPDNSPRP | -0.0436
5 | RRIRLRPPRLPRPRPRPDPNPRP | 0.168
6 | RRIRLRPPRLPRPRPRPDQRPRP | 0.274
7 | RRIRLRPPRLPRPRPRPDQVPRP | 0.0207
8 | RRIRLRPPRLPRPRPRPDRPPRP | 0.265
9 | RRIRLRPPRLPRPRPRPDSNPRP | -0.0277
10 | RRIRLRPPRLPRPRPRPDTDPRP | 0.0475
11 | RRIRLRPPRLPRPRPRPDTEPRP | -0.0195
12 | RRIRLRPPRLPRPRPRPDTVPRP | -0.399
13 | RRIRLRPPRLPRPRPRPDVWPRP | 0.127
14 | RRIRLRPPRLPRPRPRPDYDPRP | -0.496
15 | RRIRLRPPRLPRPRPRPDYRPRP | -0.0122
16 | RRIRLRPPRLPRPRPRPECKPRP | 0.0726
17 | RRIRLRPPRLPRPRPRPEDKPRP | -0.0384
18 | RRIRLRPPRLPRPRPRPEDNPRP | 0.0216
19 | RRIRLRPPRLPRPRPRPEELPRP | 0.068
20 | RRIRLRPPRLPRPRPRPEEYPRP | 0.0401
21 | RRIRLRPPRLPRPRPRPEFTPRP | -0.0622
22 | RRIRLRPPRLPRPRPRPEGEPRP | 0.624
23 | RRIRLRPPRLPRPRPRPEGGPRP | 0.0449
24 | RRIRLRPPRLPRPRPRPEGPPRP | 0.539
25 | RRIRLRPPRLPRPRPRPEHWPRP | 0.4

Row | Sequence | shrunken log2 fold change
26 | RRIRLRPPRLPRPRPRPEIDPRP | -0.0103
27 | RRIRLRPPRLPRPRPRPEIGPRP | 0.0748
28 | RRIRLRPPRLPRPRPRPELCPRP | 0.173
29 | RRIRLRPPRLPRPRPRPELLPRP | 0.335
30 | RRIRLRPPRLPRPRPRPEMDPRP | -0.059
31 | RRIRLRPPRLPRPRPRPEMNPRP | 0.176
32 | RRIRLRPPRLPRPRPRPEMQPRP | 0.0197
33 | RRIRLRPPRLPRPRPRPEMWPRP | 0.204
34 | RRIRLRPPRLPRPRPRPENMPRP | -0.4
35 | RRIRLRPPRLPRPRPRPENQPRP | -0.0987
36 | RRIRLRPPRLPRPRPRPEPCPRP | 0.0808
37 | RRIRLRPPRLPRPRPRPEPKPRP | 0.238
38 | RRIRLRPPRLPRPRPRPEPVPRP | 2.62
39 | RRIRLRPPRLPRPRPRPERAPRP | 0.705
40 | RRIRLRPPRLPRPRPRPESLPRP | 0.157
41 | RRIRLRPPRLPRPRPRPETVPRP | 0.0594
42 | RRIRLRPPRLPRPRPRPEWDPRP | 0.273
43 | RRIRLRPPRLPRPRPRPEWGPRP | 0.504
44 | RRIRLRPPRLPRPRPRPEYIPRP | -0.312
45 | RRIRLRPPRLPRPRPRPEYKPRP | -0.438
46 | RRIRLRPPRLPRPRPRPFAVPRP | -0.0849
47 | RRIRLRPPRLPRPRPRPFAWPRP | -0.00134
48 | RRIRLRPPRLPRPRPRPFCCPRP | -0.255
49 | RRIRLRPPRLPRPRPRPFCVPRP | -0.265
50 | RRIRLRPPRLPRPRPRPFDRPRP | -0.38

Row | Sequence | shrunken log2 fold change
51 | RRIRLRPPRLPRPRPRPFDTPRP | -0.167
52 | RRIRLRPPRLPRPRPRPFDVPRP | -0.0798
53 | RRIRLRPPRLPRPRPRPFIDPRP | -0.439
54 | RRIRLRPPRLPRPRPRPFILPRP | -0.978
55 | RRIRLRPPRLPRPRPRPFLNPRP | -0.172
56 | RRIRLRPPRLPRPRPRPFNNPRP | -0.426
57 | RRIRLRPPRLPRPRPRPFNPPRP | -0.349
58 | RRIRLRPPRLPRPRPRPFPDPRP | -0.0465
59 | RRIRLRPPRLPRPRPRPFPQPRP | -0.0558
60 | RRIRLRPPRLPRPRPRPFQVPRP | -0.0146
61 | RRIRLRPPRLPRPRPRPFTLPRP | -0.192
62 | RRIRLRPPRLPRPRPRPFVPPRP | -0.162
63 | RRIRLRPPRLPRPRPRPFVSPRP | -0.281
64 | RRIRLRPPRLPRPRPRPFWSPRP | -0.162
65 | RRIRLRPPRLPRPRPRPFWTPRP | 0.0168
66 | RRIRLRPPRLPRPRPRPFWWPRP | 0.483
67 | RRIRLRPPRLPRPRPRPFYNPRP | -0.584
68 | RRIRLRPPRLPRPRPRPGAQPRP | 0.0336
69 | RRIRLRPPRLPRPRPRPGEAPRP | 0.214
70 | RRIRLRPPRLPRPRPRPGEVPRP | 0.117
71 | RRIRLRPPRLPRPRPRPGGDPRP | 0.152
72 | RRIRLRPPRLPRPRPRPGGYPRP | -0.192
73 | RRIRLRPPRLPRPRPRPGMDPRP | 0.126
74 | RRIRLRPPRLPRPRPRPGMPPRP | -0.15
75 | RRIRLRPPRLPRPRPRPGNRPRP | -1.09
